According to the supplement of paper PMC10724198:
± gives the standard deviation of the averaged measurements.

Test system: Saccharomyces cerevisiae
Experiment: protein stability index of tFT-peptide fusion (C-terminal peptide) (PSI (0-1 scale)); higher = more stable (slower turnover)
Details: temperature: 30 C
Experimental: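 MPS profiling in S. cerevisiae of the yeast C-terminome library: the last 12 aa of each annotated ORF are fused to the C-terminus of a sfGFP-mCherry timer, after a GGGS linker. Cells are FACS-sorted into 8 mCherry/sfGFP bins and deep-sequenced. PSI runs from 0 (unstable) to 1 (stable); wild type and das1Δ backgrounds, two technical replicates each.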

[1] = genetic background: das1 deletion

| Sequence | protein stability index [1] | protein stability index (genetic background: wild type) |
| --- | --- | --- |
| KKPSSYVMVPRP [MRPL8 C-terminal 12 aa] | 0.708 ± 0.011 | 0.6724 ± 0.002 |
| INKRAVSNSKDV [RFT1 C-terminal 12 aa] | 0.692 ± 0.026 | 0.727 ± 0.027 |
| YVKNLLTRFFTR [FRT1 C-terminal 12 aa] | 0.7184 ± 0.0033 | 0.732 ± 0.03 |
| KRLGKKTVVTSR [DCC1 C-terminal 12 aa] | 0.701 ± 0.011 | 0.717 ± 0.055 |
| EIKPYLRFTKSK [PRX1 C-terminal 12 aa] | 0.692 ± 0.011 | 0.718 ± 0.085 |
| GGNLPQGYFYTQ [GTS1 C-terminal 12 aa] | 0.707 ± 0.0075 | 0.69615 ± 0.00011 |
| NSALSSTSTLAI [RIB1 C-terminal 12 aa] | 0.6419 ± 0.0051 | 0.64 ± 0.04 |
| SFTHQEQDTEMN [NAB2 C-terminal 12 aa] | 0.708 ± 0.032 | 0.736 ± 0.019 |
| NNFCALYNLSNP [RPN14 C-terminal 12 aa] | 0.714 ± 0.022 | 0.6867 ± 0.0038 |
| YYYYNKYKEFYP [TMH11 C-terminal 12 aa] | 0.736 ± 0.039 | 0.704 ± 0.029 |
| GRYAQIHEKHIE [ASN1 C-terminal 12 aa] | 0.7022 ± 0.0044 | 0.691 ± 0.089 |
| EELFEEDSFYKY [NDT80 C-terminal 12 aa] | 0.736 ± 0.011 | 0.759 ± 0.019 |
| SQNELRFEERLL [INO1 C-terminal 12 aa] | 0.683 ± 0.021 | 0.675 ± 0.025 |
| YRCEKISQVLVI [CTF13 C-terminal 12 aa] | 0.461 ± 0.036 | 0.495 ± 0.047 |
| VGRHSSRLMCPG [YBR126W-B C-terminal 12 aa] | 0.6932 ± 0.0053 | 0.689 ± 0.022 |
| VEPVYLCASLSL [YCR047W-A C-terminal 12 aa] | 0.666 ± 0.027 | 0.6733 ± 0.00078 |
| KHAFMGTLKKDL [RPL3 C-terminal 12 aa] | 0.7 ± 0.01 | 0.686 ± 0.03 |
| SQEPQYKLFRGR [MRPL16 C-terminal 12 aa] | 0.6988 ± 0.0014 | 0.731 ± 0.069 |
| KKQESDNDANSK [CMC2 C-terminal 12 aa] | 0.703 ± 0.014 | 0.6755 ± 0.0052 |
| PSSEEDILHDEL [LHS1 C-terminal 12 aa] | 0.68 ± 0.046 | 0.692 ± 0.034 |
| DVLDDLYRKLQR [CSE2 C-terminal 12 aa] | 0.7138 ± 8.1e-05 | 0.699 ± 0.02 |

| Sequence | protein stability index [1] | protein stability index (genetic background: wild type) |
| --- | --- | --- |
| NIILNWIYPYQR [COX18 C-terminal 12 aa] | 0.703 ± 0.033 | 0.778 ± 0.076 |
| PSYEMRYNKNER [YBL065W C-terminal 12 aa] | 0.7137 ± 0.0027 | 0.715 ± 0.0081 |
| KKLNFKLCQAFM [NUP85 C-terminal 12 aa] | 0.673 ± 0.012 | 0.6183 ± 0.006 |
| ININDLMVNRNH [YOR389W C-terminal 12 aa] | 0.7014 ± 0.0018 | 0.7003 ± 0.0012 |
| DWQNGQVEDSIP [PEX14 C-terminal 12 aa] | 0.711 ± 0.023 | 0.672 ± 0.0079 |
| SLLFVGPLFLKV [YCL007C C-terminal 12 aa] | 0.401 ± 0.016 | 0.423 ± 0.012 |
| AAGKANKQFAKF [RPS11A C-terminal 12 aa] | 0.8136 ± 0.0019 | 0.807 ± 0.042 |
| LKYCKRRHNTPS [GCR1 C-terminal 12 aa] | 0.747 ± 0.0077 | 0.736 ± 0.021 |
| SVESLMTQQDVE [BIO4 C-terminal 12 aa] | 0.691 ± 0.011 | 0.6941 ± 0.0037 |
| RKRFSYTQTKNK [RSM19 C-terminal 12 aa] | 0.678 ± 0.013 | 0.66787 ± 0.00059 |
| PICKLLEEEERG [ALG11 C-terminal 12 aa] | 0.7 ± 0.011 | 0.699 ± 0.041 |
| IESTLSNKLSIN [YCR013C C-terminal 12 aa] | 0.696 ± 0.024 | 0.674 ± 0.014 |
| TPRLYTDRSRDF [RPB2 C-terminal 12 aa] | 0.743 ± 0.0033 | 0.713 ± 0.013 |
| RPQYRRIAALEE [PSY3 C-terminal 12 aa] | 0.695 ± 0.023 | 0.672 ± 0.015 |
| KEDKKKKSSNCC [YPT32 C-terminal 12 aa] | 0.704 ± 0.0073 | 0.732 ± 0.014 |
| LVSYFIKVQMKL [ECM3 C-terminal 12 aa] | 0.487 ± 0.0087 | 0.443 ± 0.025 |
| VPQLHSFIAKEQ [RMD9 C-terminal 12 aa] | 0.699 ± 0.017 | 0.3 ± 0.0037 |
| CGCQLAVAMTTC [YFL015W-A C-terminal 12 aa] | 0.553 ± 0.039 | 0.513 ± 0.013 |
| SLDVGKILDVTI [PSR1 C-terminal 12 aa] | 0.686 ± 0.012 | 0.662 ± 0.038 |
| SELQQIFPVSQQ [SPS100 C-terminal 12 aa] | 0.706 ± 0.011 | 0.689 ± 0.033 |
